Literature values, collected in PMC4059402 (Chembiochem : a European journal of chemical biology, 2014).

Settings: with laurate

B1: wild-type CYP102A1: long-chain fatty acid monoxygenase CYP102A1 (P450BM3) from B. megaterium (protein, UniProt P14779 1-1049, looked up)
Bifunctional cytochrome …: MTIKEMPQPKTFGELKNLPLLNTDKPVQALMKIADELGEIFKFEAPGRVTRYLSSQRLIKEACDESRFDKNLSQALKFVRDFAGDGLFTSWTHEKNWKKAHNILLPSFSQQAMKGYHAMMVDIAVQLVQKWERLNADEHIEVPEDMTRLTLDTIGLCGFNYRFNSFYRDQPHPFITSMVRALDEAMNKLQRANPDDPAYDENKRQFQEDIKVMNDLVDKIIADRKASGEQSDDLLTHMLNGKDPETGEPLDDENIRYQIITFLIAGHETTSGLLSFALYFLVKNPHVLQKAAEEAARVLVDPVPSYKQVKQLKYVGMVLNEALRLWPTAPAFSLYAKEDTVLGGEYPLEKGDELMVLIPQLHRDKTIWGDDVEEFRPERFENPSAIPQHAFKPFGNGQRACIGQQFALHEATLVLGMMLKHFDFEDHTNYELDIKETLTLKPEGFVVKAKSKKIPLGGIPSPSTEQSAKKVRKKAENAHNTPLLVLYGSNMGTAEGTARDLADIAMSKGFAPQVATLDSHAGNLPREGAVLIVTASYNGHPPDNAKQFVDWLDQASADEVKGVRYSVFGCGDKNWATTYQKVPAFIDETLAAKGAENIADRGEADASDDFEGTYEEWREHMWSDVAAYFNLDIENSEDNKSTLSLQFVDSAADMPLAKMHGAFSTNVVASKELQQPGSARSTRHLEIELPKEASYQEGDHLGVIPRNYEGIVNRVTARFGLDASQQIRLEAEEEKLAHLPLAKTVSVEELLQYVELQDPVTRTQLRAMAAKTVCPPHKVELEALLEKQAYKEQVLAKRLTMLELLEKYPACEMKFSEFIALLPSIRPRYYSISSSPRVDEKQASITVSVVSGEAWSGYGEYKGIASNYLAELQEGDTITCFISTPQSEFTLPKDPETPLIMVGPGTGVAPFRGFVQARKQLKEQGQSLGEAHLYFGCRSPHEDYLYQEELENAQSEGIITLHTAFSRMPNQPKTYVQHVMEQDGKKLIELLDQGAHFYICGDGSQMAPAVEATLMKSYADVHQVSEADARLWLQQLEEKGRYAKDVWAG
Question: With B1 as the molecule, how does the catalytic rate read?
Answer: Its catalytic rate is 1,680 min^−1.
